B1: Sli15/Ipl1 core chromosomal passenger complex (complex, S. cerevisiae)
chain 1: MDWAIKAARKKTQRKPGSTRSIIETLDDLNNLTTDAHSEINQRLYESSEWLRNNVYMNTLKYEDKKMEESLISPENTHNKMDVEFPKMKGEYELSNSQNDAAKDVTKTPRNGLHNDKSITPKSLRRKEVTEGMNRFSIHDTNKSPVEPLNSVKVDANESEKSSPWSPYKVEKVLRESSKTSESPINTKRFDNQTWAAKEEMENEPILQALKKAESVKVKPPPNSGIARSQRRSNMFVPLPNKDPLIIQHIPPTKSSGSIPKVRTVKESPIAFKKKSTINSPAIRAVENSDTAGSTKASSVFDRLSSIPTKSFENKISRGNVGHKYSSSSIDLTGSPMKKVSQKFKSINSTDTDMQEALRDIFSVKNKITKNNSPKGKNSRKSSIPRFDKTSLKLTTHKKLAIIAEQKKKSKHSSDVHKTGSRPHSISPTKISVDSSSPSKEVKNYYQSPVRGYLRPTKASISPNKNKNLTTSQTPHRLKIKEKTLRKLSPNIADISKPESRKSKNYRLTNLQLLPPAEAERDDLKKKFDKRLSGIMRSQQEHHRRKQEKQKRMSHLEQDLKKQTSFSNDYKDIRLKESLAPFDNHVRDTINKNTAFSTDNILATINTVDHREIIGNVTPKIASVNDSLPEINTDSEDEASVTLAAWAKSPYLQEQLIRQQDINPQTIFGPIPPLHTDEIFPNPRLNRLKPRQIVPKRS
chain 2: MQRNSLVNIKLNANSPSKKTTTRPNTSRINKPWRISHSPQQRNPNSKIPSPVREKLNRLPVNNKKFLDMESSKIPSPIRKATSSKMIHENKKLPKFKSLSLDDFELGKKLGKGKFGKVYCVRHRSTGYICALKVMEKEEIIKYNLQKQFRREVEIQTSLNHPNLTKSYGYFHDEKRVYLLMEYLVNGEMYKLLRLHGPFNDILASDYIYQIANALDYMHKKNIIHRDIKPENILIGFNNVIKLTDFGWSIINPPENRRKTVCGTIDYLSPEMVESREYDHTIDAWALGVLAFELLTGAPPFEEEMKDTTYKRIAALDIKMPSNISQDAQDLILKLLKYDPKDRMRLGDVKMHPWILRNKPFWENKRL
notes: Sli15 (INCENP ortholog), wild type; open reading frame amplified from yeast genomic DNA; Ipl1 (Aurora B ortholog); also called Sli15-2xStrep/Ipl1; Sli15-2xStrep-HA-6xHis/Ipl1; source: High Five insect cells (baculovirus), purified (Strep-Tactin Superflow agarose); not shown: 2xStrep, C-terminal, kept; HA, C-terminal, kept; 6xHis, C-terminal, kept
B2: dephosphorylated Sli15/Ipl1 (complex, S. cerevisiae)
chain 1: MDWAIKAARKKTQRKPGSTRSIIETLDDLNNLTTDAHSEINQRLYESSEWLRNNVYMNTLKYEDKKMEESLISPENTHNKMDVEFPKMKGEYELSNSQNDAAKDVTKTPRNGLHNDKSITPKSLRRKEVTEGMNRFSIHDTNKSPVEPLNSVKVDANESEKSSPWSPYKVEKVLRESSKTSESPINTKRFDNQTWAAKEEMENEPILQALKKAESVKVKPPPNSGIARSQRRSNMFVPLPNKDPLIIQHIPPTKSSGSIPKVRTVKESPIAFKKKSTINSPAIRAVENSDTAGSTKASSVFDRLSSIPTKSFENKISRGNVGHKYSSSSIDLTGSPMKKVSQKFKSINSTDTDMQEALRDIFSVKNKITKNNSPKGKNSRKSSIPRFDKTSLKLTTHKKLAIIAEQKKKSKHSSDVHKTGSRPHSISPTKISVDSSSPSKEVKNYYQSPVRGYLRPTKASISPNKNKNLTTSQTPHRLKIKEKTLRKLSPNIADISKPESRKSKNYRLTNLQLLPPAEAERDDLKKKFDKRLSGIMRSQQEHHRRKQEKQKRMSHLEQDLKKQTSFSNDYKDIRLKESLAPFDNHVRDTINKNTAFSTDNILATINTVDHREIIGNVTPKIASVNDSLPEINTDSEDEASVTLAAWAKSPYLQEQLIRQQDINPQTIFGPIPPLHTDEIFPNPRLNRLKPRQIVPKRS
chain 2: MQRNSLVNIKLNANSPSKKTTTRPNTSRINKPWRISHSPQQRNPNSKIPSPVREKLNRLPVNNKKFLDMESSKIPSPIRKATSSKMIHENKKLPKFKSLSLDDFELGKKLGKGKFGKVYCVRHRSTGYICALKVMEKEEIIKYNLQKQFRREVEIQTSLNHPNLTKSYGYFHDEKRVYLLMEYLVNGEMYKLLRLHGPFNDILASDYIYQIANALDYMHKKNIIHRDIKPENILIGFNNVIKLTDFGWSIINPPENRRKTVCGTIDYLSPEMVESREYDHTIDAWALGVLAFELLTGAPPFEEEMKDTTYKRIAALDIKMPSNISQDAQDLILKLLKYDPKDRMRLGDVKMHPWILRNKPFWENKRL
modifications: basal phosphorylation removed with lambda phosphatase | basal phosphorylation removed with lambda phosphatase
notes: Sli15 (INCENP ortholog); open reading frame amplified from yeast genomic DNA; Ipl1 (Aurora B ortholog); also called Sli15/Ipl1 (dp); not shown: 2xStrep, C-terminal, kept; HA, C-terminal, kept; 6xHis, C-terminal, kept

How the values were obtained:
[1] = target: T1, COMA complex (Ctf19/Okp1/Mcm21/Ame1) (S. cerevisiae, UniProt P38313 1-324; P53298 1-406; Q02732 1-369; Q06675 1-368); assay: cross-linking; Sli15-2xStrep-HA-6xHis/Ipl1 with Ame1/Okp1 and Ctf19/Mcm21 assembled on Strep-Tactin agarose (RT, 1 hr; 50 mM NaH2PO4 pH 8.0, 500 mM NaCl, 5% glycerol), eluted with biotin, re-isolated on Ni-NTA beads; BS3 0.25–0.5 mM, 30°C, 30 min; LC-MS/MS, xQuest; conditions: both partners purified
T1 construct: Ame1 (CENP-U ortholog); Okp1 (CENP-Q ortholog); Ctf19 (CENP-P ortholog); open reading frame amplified from yeast genomic DNA; Mcm21 (CENP-O ortholog); The two heterodimers m7 and m12 together; copies: + + +

[2] = target: T1, COMA complex (Ctf19/Okp1/Mcm21/Ame1); assay: pull-down; Sli15-2xStrep-HA-6xHis/Ipl1 immobilised on Strep-Tactin Superflow agarose, 2-fold molar excess of the partners; 50 mM NaH2PO4 pH 8, 120 mM NaCl, 5% glycerol, 4°C, 1 hr; SDS-PAGE and Coomassie; conditions: both partners purified

T1 sequence (P38313 whole entry, chain 1 of 4): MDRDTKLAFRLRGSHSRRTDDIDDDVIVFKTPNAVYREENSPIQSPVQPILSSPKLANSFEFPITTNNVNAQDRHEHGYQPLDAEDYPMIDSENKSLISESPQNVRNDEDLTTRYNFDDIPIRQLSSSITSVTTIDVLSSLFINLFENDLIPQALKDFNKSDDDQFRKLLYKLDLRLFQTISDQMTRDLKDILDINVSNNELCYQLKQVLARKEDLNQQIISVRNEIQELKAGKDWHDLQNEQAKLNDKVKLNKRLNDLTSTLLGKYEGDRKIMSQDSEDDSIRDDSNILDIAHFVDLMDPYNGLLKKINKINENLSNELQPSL
T1 sequence (P53298 whole entry, chain 2 of 4): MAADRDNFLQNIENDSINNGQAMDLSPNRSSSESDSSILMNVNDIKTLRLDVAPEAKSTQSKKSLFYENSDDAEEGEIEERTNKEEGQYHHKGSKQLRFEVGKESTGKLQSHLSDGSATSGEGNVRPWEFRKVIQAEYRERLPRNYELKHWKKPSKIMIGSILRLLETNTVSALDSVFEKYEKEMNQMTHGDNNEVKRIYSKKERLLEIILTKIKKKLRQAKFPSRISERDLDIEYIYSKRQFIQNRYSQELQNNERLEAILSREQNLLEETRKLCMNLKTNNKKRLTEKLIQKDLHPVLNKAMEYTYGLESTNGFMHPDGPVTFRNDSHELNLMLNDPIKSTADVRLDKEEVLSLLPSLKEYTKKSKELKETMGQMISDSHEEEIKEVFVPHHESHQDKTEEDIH
T1 sequence (Q02732 whole entry, chain 3 of 4): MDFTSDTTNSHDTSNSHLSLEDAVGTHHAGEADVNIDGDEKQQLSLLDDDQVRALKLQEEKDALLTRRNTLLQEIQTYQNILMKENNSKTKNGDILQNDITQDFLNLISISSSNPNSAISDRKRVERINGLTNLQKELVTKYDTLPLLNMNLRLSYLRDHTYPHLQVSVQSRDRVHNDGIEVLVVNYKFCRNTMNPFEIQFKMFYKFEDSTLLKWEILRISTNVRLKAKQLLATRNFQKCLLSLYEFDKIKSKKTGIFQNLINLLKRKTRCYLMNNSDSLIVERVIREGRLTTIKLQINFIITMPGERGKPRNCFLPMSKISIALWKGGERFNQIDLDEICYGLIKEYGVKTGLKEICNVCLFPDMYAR
T1 sequence (Q06675 whole entry, chain 4 of 4): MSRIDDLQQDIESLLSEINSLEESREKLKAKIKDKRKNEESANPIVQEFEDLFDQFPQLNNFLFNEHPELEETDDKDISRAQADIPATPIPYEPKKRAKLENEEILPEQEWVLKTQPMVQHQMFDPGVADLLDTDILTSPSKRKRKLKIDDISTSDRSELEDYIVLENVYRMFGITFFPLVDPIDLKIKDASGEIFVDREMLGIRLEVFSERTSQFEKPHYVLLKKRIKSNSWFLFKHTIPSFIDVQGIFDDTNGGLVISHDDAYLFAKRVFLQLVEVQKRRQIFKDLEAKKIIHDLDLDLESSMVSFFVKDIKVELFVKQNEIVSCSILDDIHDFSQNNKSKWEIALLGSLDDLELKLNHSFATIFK

| Binder | binding result [1] | binding result [2] |
| --- | --- | --- |
| B1 | binds |  |
| B2 |  | binds |

From PMC6546395 (eLife, 2019)
